# Test results from PMC7105311, “Structure and function of Bs164 β-mannosidase from Bacteroides salyersiae the founding member of glycoside hydrolase family GH164” (The Journal of Biological Chemistry, 2019).
# B1: Bs164 (Bacteroides salyersiae CL02T12C01) (protein)
# chain: ERISKQSTPFVGAQIFIEPGQTQEQIEQWFKLLAESNMTTCRIRMFGKYMKTPSGTYDFTLFDRAFKLADKYHIKVYATLFPDTEFTDVGGFKFPHSREHQKEVEDYIKNVVSHFSQYKNLAAWVLINEPGTPNLPFNEPFTKERFSDWKKEHNFSEYNEKGYPVLNFEKENFIIDYHNWYLNWLANQVRLYDKQHDLHVNPHNVFKLSGLYDFPTWRTFLNSLGGSAHASWHFGYFPRKAYTVAMSANAELIRSGAGELPWLMTELQGGNNLYSGANPLCPTAEEIIQWLWINFATEAKGGIFWSFNARSTAAEAGEWAMINFKNKSSDRLIAAATIGKFITENVKMMSNIKTLNSGISILYNHESMWVEAAQTRGKLNGNGRSIGAVMCSPLSYFEALSETGLQANFKEIKEFDFSLNDYTDQVIILSHQIALDNKVIKQLESFVEKGGTLIADGLTGYYDYQAHSTVVSGFALENLFGSYPIEYKIKENLFSLDFEKDNYKLPAHLWKGTIETSKATPIMDKEGECIACINQYGKGKVFWIPSPIALGARESKDFSELSKLTVSLLPNKILNDNPHFDKHYKDVMMKSFKSNGTMYSLIINKSASVQTVDIVGGKGKAFILFANKNAHSTANKLTISPEETVIIKWKNN
# notes: tag cut by 3C protease for kinetics, His6-tagged for crystals
# Legend:
# [1] = substrate: Cc1cc(=O)oc2cc(O[C@@H]3O[C@H](CO)[C@@H](O)[C@H](O)[C@@H]3O)ccc12; assay: purified protein; type: biochemical, Bacteroides salyersiae; settings: 80 mM MES pH 5.5, 160 mM NaCl, 25 °C
# [2] = substrate: O=[N+]([O-])c1ccc(O[C@@H]2O[C@H](CO)[C@@H](O)[C@H](O)[C@@H]2O)cc1; assay: stopped assay, p-nitrophenol absorbance; type: biochemical, Bacteroides salyersiae; settings: 80 mM MES pH 5.5, 160 mM NaCl, 25 °C
# From the text: stopped assay, p-nitrophenol absorbance on Bs164
protein,measurement,setting,value
B1,Km,[1],1050 ± 80 µM
same,kcat,[1],1.8 ± 0.05 s⁻¹
same,kcat/Km,[1],1700 ± 100 M⁻¹ s⁻¹
same,Km,[2],3600 ± 800 µM
same,kcat,[2],40 ± 3 s⁻¹
same,kcat/Km,[2],11000 ± 3000 M⁻¹ s⁻¹
